The target in one data set is T1, EcR/usp heterodimer (Drosophila melanogaster, UniProt P34021;P20153 P34021:1-878,P20153:1-508).
T1 sequence 1: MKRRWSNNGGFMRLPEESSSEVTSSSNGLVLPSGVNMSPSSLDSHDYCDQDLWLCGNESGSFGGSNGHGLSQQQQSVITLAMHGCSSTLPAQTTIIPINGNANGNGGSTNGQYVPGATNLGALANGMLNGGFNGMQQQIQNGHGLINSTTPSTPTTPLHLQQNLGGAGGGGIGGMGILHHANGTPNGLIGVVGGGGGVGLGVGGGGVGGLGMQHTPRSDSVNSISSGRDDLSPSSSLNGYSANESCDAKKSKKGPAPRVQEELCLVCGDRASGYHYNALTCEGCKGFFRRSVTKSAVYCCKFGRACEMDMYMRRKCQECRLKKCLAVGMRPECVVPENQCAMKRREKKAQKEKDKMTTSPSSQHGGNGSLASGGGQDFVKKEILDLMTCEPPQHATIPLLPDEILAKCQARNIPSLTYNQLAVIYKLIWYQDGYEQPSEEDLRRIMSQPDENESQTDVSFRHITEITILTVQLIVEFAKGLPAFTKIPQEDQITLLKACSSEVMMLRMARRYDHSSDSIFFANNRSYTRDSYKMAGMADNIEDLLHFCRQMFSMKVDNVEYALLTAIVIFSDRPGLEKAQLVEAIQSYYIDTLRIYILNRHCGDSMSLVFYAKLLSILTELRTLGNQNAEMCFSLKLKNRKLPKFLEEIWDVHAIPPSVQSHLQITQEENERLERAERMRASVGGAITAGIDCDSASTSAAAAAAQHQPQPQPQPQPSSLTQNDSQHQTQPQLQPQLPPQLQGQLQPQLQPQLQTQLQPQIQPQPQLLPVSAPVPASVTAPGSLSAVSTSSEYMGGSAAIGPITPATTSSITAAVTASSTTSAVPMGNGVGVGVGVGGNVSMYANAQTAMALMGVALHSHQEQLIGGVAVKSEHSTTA
T1 sequence 2: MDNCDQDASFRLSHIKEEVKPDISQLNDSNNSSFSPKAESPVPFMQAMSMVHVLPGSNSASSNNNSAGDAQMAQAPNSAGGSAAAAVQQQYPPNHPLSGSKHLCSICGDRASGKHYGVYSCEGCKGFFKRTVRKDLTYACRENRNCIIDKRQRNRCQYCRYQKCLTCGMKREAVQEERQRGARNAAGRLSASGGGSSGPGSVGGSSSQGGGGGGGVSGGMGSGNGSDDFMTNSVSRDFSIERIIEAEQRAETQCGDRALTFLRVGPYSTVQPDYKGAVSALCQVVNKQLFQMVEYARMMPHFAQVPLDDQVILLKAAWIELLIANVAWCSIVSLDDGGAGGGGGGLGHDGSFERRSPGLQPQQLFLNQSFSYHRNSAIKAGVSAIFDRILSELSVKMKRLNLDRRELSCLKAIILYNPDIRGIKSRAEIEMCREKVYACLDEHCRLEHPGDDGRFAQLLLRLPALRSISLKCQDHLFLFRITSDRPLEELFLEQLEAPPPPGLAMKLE
As to the kind of experiment: competition; competes as effectively as hsp27-EcRE.

A further data set deals with T2, usp/RARα heterodimer (Drosophila melanogaster / Homo sapiens, UniProt P20153;P10276 P20153:1-508,P10276:1-462).
T2 sequence 1: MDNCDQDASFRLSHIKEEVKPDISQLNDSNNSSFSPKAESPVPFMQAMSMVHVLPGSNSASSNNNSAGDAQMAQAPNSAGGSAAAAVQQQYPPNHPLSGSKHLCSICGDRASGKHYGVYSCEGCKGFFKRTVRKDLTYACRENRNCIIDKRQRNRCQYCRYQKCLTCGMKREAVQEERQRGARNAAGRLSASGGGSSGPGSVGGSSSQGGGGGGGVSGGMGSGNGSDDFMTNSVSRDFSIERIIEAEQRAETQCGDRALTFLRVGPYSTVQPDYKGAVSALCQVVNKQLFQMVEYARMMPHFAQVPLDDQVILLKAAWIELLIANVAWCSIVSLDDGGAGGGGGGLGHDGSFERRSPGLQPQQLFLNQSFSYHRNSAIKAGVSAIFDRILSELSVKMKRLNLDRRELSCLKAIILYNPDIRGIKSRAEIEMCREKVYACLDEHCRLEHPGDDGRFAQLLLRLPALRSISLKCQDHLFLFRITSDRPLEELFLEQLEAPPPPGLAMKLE
T2 sequence 2: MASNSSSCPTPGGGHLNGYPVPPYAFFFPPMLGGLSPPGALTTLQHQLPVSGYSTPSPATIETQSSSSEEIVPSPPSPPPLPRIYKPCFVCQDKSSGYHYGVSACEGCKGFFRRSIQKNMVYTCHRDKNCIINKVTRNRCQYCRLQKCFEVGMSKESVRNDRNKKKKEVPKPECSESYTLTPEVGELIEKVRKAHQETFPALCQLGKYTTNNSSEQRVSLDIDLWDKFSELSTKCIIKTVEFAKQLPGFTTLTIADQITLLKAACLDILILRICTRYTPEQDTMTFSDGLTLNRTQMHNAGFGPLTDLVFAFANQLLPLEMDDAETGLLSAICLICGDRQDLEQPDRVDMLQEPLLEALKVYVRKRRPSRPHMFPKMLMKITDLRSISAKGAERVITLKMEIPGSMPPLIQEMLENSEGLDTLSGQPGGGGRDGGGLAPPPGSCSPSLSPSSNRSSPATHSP
Kind of data set: EMSA; prominent complex; affected by usp and RARα antibodies. Particulars: label: 32P. The procedure: (§1) For gel mobility shift assay, proteins were incubated with binding buffer, which contained 100 mM KCl, 7.5% glycerol, 20 mM HEPES pH 7.5, 2 mM DTT and 0.1% NP-40, on ice for 20 minutes in the presence of 2 μg of nonspecific competitor poly dI-dC and other oligo competitors. Then approximately 1 ng of ^32P-dCTP probe, which was labelled to specific activity about 1-5×10^8 cpm/μg by fill-in reaction with Klenow fragments, was added to the reaction and incubated at room temperature for 20 minutes. Antiserum or preimmune serum was added 10 minutes after the probe was added. The reaction was then loaded into 5% non-denaturing polyacrylamide gel in 0.5×TBE running buffer [1×TBE comprises 0.089 M Tris borate, 0.089 M boric acid and 0.002 M EDTA]. After electrophoresis, the gel was dried for autoradiography.
(§2) Neither in vitro translated usp alone, nor RARα alone, bound to a βRARE probe. However, when the two proteins were incubated together, a prominent retarded complex appeared. This complex comigrated with the complex detected in the RAR and cell extract mixing experiments. […] Either the affinity purified usp antibody, or the RARα, specifically affected the protein/ DNA complex, while preimmune sera had no effect. […]

For a further data set, the target named is T3, ultraspiracle (usp) (Drosophila melanogaster, UniProt P20153 SEQ:1-513).
T3 sequence: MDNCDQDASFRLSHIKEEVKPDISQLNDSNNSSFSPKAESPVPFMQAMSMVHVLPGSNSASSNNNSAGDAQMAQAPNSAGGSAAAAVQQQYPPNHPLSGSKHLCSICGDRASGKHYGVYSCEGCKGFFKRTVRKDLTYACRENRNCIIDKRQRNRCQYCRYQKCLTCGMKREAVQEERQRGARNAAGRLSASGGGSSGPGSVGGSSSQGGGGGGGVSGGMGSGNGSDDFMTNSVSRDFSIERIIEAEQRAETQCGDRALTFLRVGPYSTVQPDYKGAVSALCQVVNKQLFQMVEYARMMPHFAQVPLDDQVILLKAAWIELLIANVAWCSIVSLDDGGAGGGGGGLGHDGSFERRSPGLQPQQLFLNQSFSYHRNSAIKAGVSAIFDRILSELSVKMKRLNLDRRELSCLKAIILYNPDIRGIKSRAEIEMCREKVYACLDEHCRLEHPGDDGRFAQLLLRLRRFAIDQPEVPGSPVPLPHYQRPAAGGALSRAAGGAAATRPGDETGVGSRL
As to the kind of experiment: EMSA; usp alone. Particulars: label: 32P. The procedure: as §1, §2

The target of the next data set is T4, RARα (human) (Homo sapiens, UniProt P10276 P10276:1-462).
T4 sequence: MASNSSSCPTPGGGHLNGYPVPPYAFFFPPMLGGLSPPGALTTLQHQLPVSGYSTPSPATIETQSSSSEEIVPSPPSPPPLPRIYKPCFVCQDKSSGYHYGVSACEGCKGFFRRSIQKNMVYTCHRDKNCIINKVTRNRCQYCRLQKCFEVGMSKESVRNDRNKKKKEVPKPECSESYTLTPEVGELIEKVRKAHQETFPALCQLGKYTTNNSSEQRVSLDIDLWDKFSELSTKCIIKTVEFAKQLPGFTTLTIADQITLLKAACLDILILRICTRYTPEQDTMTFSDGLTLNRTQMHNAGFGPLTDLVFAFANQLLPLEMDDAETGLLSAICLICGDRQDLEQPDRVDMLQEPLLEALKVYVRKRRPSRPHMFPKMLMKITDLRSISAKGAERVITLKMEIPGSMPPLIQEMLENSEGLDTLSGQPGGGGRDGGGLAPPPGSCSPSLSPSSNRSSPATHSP
As to the kind of experiment: EMSA; RARα alone. To be noted: label: 32P. The protocol:
as §1
In gel mobility shift assays using a ^32P-labelled natural RAR response element—βRARE [see SEQ ID NO:15, see also de The et al., in Nature Vol. 343:177–180 (1990); and Sucov et al., in Proc. Natl. Acad. Sci. USA Vol. 87:5392–5398 (1990)] as the probe, in vitro translated RARα was incubated with probe under binding conditions either alone or with 2 µg of S2 extracts or embryo extracts.
Neither in vitro translated usp alone, nor RARα alone, bound to a βRARE probe. […] This complex comigrated with the complex detected in the RAR and cell extract mixing experiments. […]
A general note: A gel shift assay detects complexes by their altered migration in electrophoresis.

B1: Eip28/29-EcRE (dsDNA)
DNA 1: TAAAGGATCTTGACCCCAATGAACTTCTTA
DNA 2: TAAGAAGTTCATTGGGGTCAAGATCCTTTA
On to B1, for which, in the data set with EcR/usp heterodimer, the binding result is on record as “binds”.

B2: βRARE (DR5) (dsDNA)
DNA 1: GGTTCACCGAAAGTTCA
DNA 2: TGAACTTTCGGTGAACC
Consider B2, for which the binding result with usp/RARα heterodimer is “binds”; in the data set with ultraspiracle (usp) it was “no binding”; in the data set with RARα (human), “no binding”.

The record behind these values is patent US7119077B1, “Multimeric forms of members of the steroid/thyroid superfamily of receptors with the ultraspiracle receptor” (The Salk Institute for Biological Studies, priority 1990, dated 2006).
